Source: US20210300999A1

Biological target: SARS-CoV-2 prefusion-stabilized trimeric spike ectodomain (S2Pecto) (SARS-CoV-2) (UniProt P0DTC2)
Experiment: ELISA on coated antigen

## rCR3022 (recombinant form of the cross-reactive SARS-CoV SRBD mAb CR3022) (antibody)
  EC50: 0.0102 µg/mL
